The source of these data is patent US20240067734A1 (Hoffmann-La Roche, published 2024).

The assay addresses T1, human NKG2D expressed on cells (human, UniProt P26718 1-216).
T1 construct: the cell type is named under assay; also called NKG2D on NK92 cells; HEK293T human NKG2D
T1 chain: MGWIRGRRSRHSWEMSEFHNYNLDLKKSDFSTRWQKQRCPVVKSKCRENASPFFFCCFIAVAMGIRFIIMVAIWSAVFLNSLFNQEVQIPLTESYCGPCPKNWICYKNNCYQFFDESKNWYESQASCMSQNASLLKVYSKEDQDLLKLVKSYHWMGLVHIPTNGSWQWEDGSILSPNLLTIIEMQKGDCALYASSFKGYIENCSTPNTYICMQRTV
The experiment in a line: flow cytometry on NKG2D-positive NK92 cells, anti-human Fc secondary antibody. On the procedure:
Viability of NK92 cells or tumor cells (MKN-45, LS180) was checked and cells were re-suspended and adjusted to a density of 1 mio cells/ml. 100 μl per well of this cell suspension (containing 0.1 mio cells) were seeded into a 96 well round bottom plate. The plate was centrifuged for 4 min at 400×g and the supernatant was removed. Then 40 μl of the diluted antibodies or FACS buffer were added to the cells and incubated for 30 min at 4° C. After the incubation the cells were washed twice with 150 μl FACS buffer per well. […] The cells were incubated for an additional 30 min at 4° C. To remove unbound antibody, the cells were washed again twice with 150 μl per well FACS buffer. To fix the cells, 100 μl of FACS buffer containing 1% PFA were added to the wells. Before measuring, the cells were re-suspended in 150 μl FACS buffer. The fluorescence was measured using a BD flow cytometer.

B1: anti-NKG2D antibody clone 395 (antibody, V domains shown)
VH: QEQLEQSGGGLVTPGGSLKLCCTASGFDFNTFWMTWVRQAPGKGLEWIGCIHGGSGSRDYASWVNGRFTLSRDIDQSTACLQVNSLTAADTAMYYCARPGYRSWSKTFDLWGQGTMVTVSS
VL: DIQMTQSPSSLSASVGDRVTITCRASQDISGALNWYQQKPGKAPNLLIYAASSLQSGVPSRFSGSGSGTDYTLTISSLQPEDFATYYCQQANSFPLTFGGGTKVEIK
notes: From transgenic rabbits; rabbit VH, human VL
Take B1: the 50% effective concentration (EC50 (read off the curve)) is roughly 2 nM.
